For this assay, the target named is soluble recombinant NadA_(Δ351-405) (rNadA), Neisseria meningitidis adhesin A lacking the membrane anchor region (Neisseria meningitidis) (UniProt Q8KH85). Put plainly: SEC-MALS; rNadA 1,7 mg/ml in 10 mM NaH2PO4 150 mM NaCl pH 7.2, heated at 37°C for 30 min, 1, 2 and 4 hrs; TSK Super SW3000, eluted in 0.1 M NaH2PO4, 0,1 M NaHSO4 pH 7.0; MALLS detector Dawn TREOS. A general note: SEC sorts molecules by how far they enter the pores of the column.

For “soluble recombinant NadA_(Δ351-405) (rNadA), Neisseria meningitidis adhesin A lacking the membrane anchor region (from UniProt Q8KH85 1-350) (domain or fragment)”, the percent of the preparation present as the native trimer is 95% and the stoichiometry N (in general, a count of units in the complex or per binding partner) stood at 3.

For the origin of these results see publication PMC4210143.
